Here are results for three substances from IntAct's records for PubMed 22115042.

The target in assay [1] is dock3_mouse Dock3 (UniProt Q8CIQ7).
Assay [2] has the same target. The source holds these as a separate data set.

Chain of Presenilin-2 (Homo sapiens), P49810 N141I (P49810 whole entry N141I): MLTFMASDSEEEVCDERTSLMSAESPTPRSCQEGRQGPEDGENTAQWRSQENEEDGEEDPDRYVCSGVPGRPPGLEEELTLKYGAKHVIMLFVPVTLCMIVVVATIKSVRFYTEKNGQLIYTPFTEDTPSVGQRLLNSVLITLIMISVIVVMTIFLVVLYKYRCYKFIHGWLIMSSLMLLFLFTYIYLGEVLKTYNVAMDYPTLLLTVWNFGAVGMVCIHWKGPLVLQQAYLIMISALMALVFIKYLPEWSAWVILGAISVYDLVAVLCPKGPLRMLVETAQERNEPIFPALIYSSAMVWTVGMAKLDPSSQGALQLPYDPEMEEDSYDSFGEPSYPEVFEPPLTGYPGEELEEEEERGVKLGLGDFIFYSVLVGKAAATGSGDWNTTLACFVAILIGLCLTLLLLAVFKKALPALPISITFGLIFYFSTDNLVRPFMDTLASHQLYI

Regarding “Presenilin-1 (Homo sapiens) (from UniProt P49768) M146L”, the “effect of a mutation on the interaction” value with dock3_mouse Dock3 [1] was “increasing interaction strength”.

As to “Presenilin-2 (Homo sapiens), P49810 N141I”, the “effect of a mutation on the interaction” value with dock3_mouse Dock3 [2] was “with no effect”.

In the case of “Presenilin-1 (Homo sapiens) (from UniProt P49768) C410Y”, the “effect of a mutation on the interaction” value with dock3_mouse Dock3 [1] is given as “increasing interaction strength”.
